The test has as its target T1, HIV-1 Rev protein (mobility shift assay, bound to stem-loop IIB RRE RNA) (HIV-1, strain  for this …, UniProt P04618).
T1 construct: also called IIB associated Rev
Kind of test: native gel or EMSA. As to conditions: both partners purified. A general note: In EMSA bound probe runs differently from free probe, usually more slowly.

T1 sequence (P04618 whole entry): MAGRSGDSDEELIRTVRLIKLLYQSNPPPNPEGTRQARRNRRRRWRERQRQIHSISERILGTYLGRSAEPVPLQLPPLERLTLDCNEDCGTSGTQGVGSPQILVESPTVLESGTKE

B1: Nb190, wild type, purified from E. coli (VHH)
VHH: QVQLQESGGGLVQAGGSLRLSCAASGSIFSINTMGWYRQAPGKQRELVAFATSGGSTNYPDSVKGRFTISRDNVKNTVYLQMNSLKPEDTAVYYCNIDGFLGSLYKDYWSQGTQVTVSS
With B1, the binding result is given as “binds”.

The values above are taken from publication PMC3615019, “Mapping the Binding Interface between an HIV-1 Inhibiting Intrabody and the Viral Protein Rev” (PLoS ONE, 2013).
